In patent publication US20260077065A1, “Compositions and Methods for Assessing Kinase Activity” (The Board of Trustees of the Leland Stanford Junior …, priority 2022, published 2026):

How the values were obtained:
[1] = target: SmBiT(ΔC3) (NanoBiT small fragment truncated by 3 amino acids at the C-terminus); experiment: cell-based or functional assay
[2] = target: ERK substrate (Cdc25C substrate sequence with second phosphorylation site, V-3S); experiment: cell-based or functional assay

Substance: LgBiT (NanoBiT large fragment of NanoLuc), ΔN2 (enzyme)
- response (luminescence induction by ERK inhibition) of the reporter with truncated SmBiT [1]: 300%

Substance: WW phospho-binding domain (proline-directed WW phospho-binding domain from Pin1) (from UniProt Q13526 1-54)
- induction of luminescence (ΔC3 V-3S) [2]: 8.8 fold

Substance: WW phospho-binding domain with F25A mutation (from UniProt Q13526 1-54)
- induction of luminescence by Vx-11e (bKiMBI) [2]: > 10 fold
